A short description of the series: soluble on expression in E. coli; label from the status in PepcDB or PDB records.
As to “MSLSFDFSPDFNPLAARMRPASVEEYIGQSHLLGEGKPLRQALLAGKVHSMLLWGPPGTGKTTLAELVARYANAHVERISAVTSGVKEIRAAIEQAKNVAQSRGQRTLLFVDEVHRFNKSQQDAFLPFIEDGTVIFIGATTENPSFEVNNALLSRCRVYLIKRLEDDAIGQILAQANSDEARGLGKRGLLLKAELKSAIARLCDGDARKALNLLELMSDLLPDGGEYNLELLSEVAGHQAAGYDKNGDQYYDLISAVHKSIRGSAPDAALYWFCRILEGGGDPLYVARRLLAIASEDIGNADPNAMTVALNAWDCFHRVGPAEGERAIAQAVIYLASAPKSNAVYTAFKAARVLARETGNAPVPNHLRNAPTKLMSELGVGEGYRYAHDEDGAFAAGENYFPEVLQHSRIYQPTARGFEKRIRDKLAHLDALNQQSEGHHHHHH”, the “soluble on expression in E. coli” value is listed as “soluble”.

Consider “MEVKYGLHPTLGEHGERELLALQKVDYPKGDVKAQAKHTARTLLECYNCHSLGEYNTLLNLYNITVYEVRGSVDGKEYHGIMYGALDDNGQQVGTPFKSSKFGKVFGYEALQKKFAASAEKVKKDNLPERLEHHHHHH”, for which the “soluble on expression in E. coli” value is “not soluble”.

Take “MPRSTWFKALLLLVALWAPLSQAETGWQPIQETIRKSDKDNRQYQAIRLDNGMVVLLVSDPQAVKSLSALVVPVGSLEDPEAYQGLAHYLEHMSLMGSKKYPQADSLAEYLKMHGGSHNASTAPYRTAFYLEVENDALPGAVDRLADAIAEPLLDKKYAERERNAVNAELTMARTRDGMRMAQVSAETINPAHPGSKFSGGNLETLSDKPGNPVQQALKDFHEKYYSANLMKAVIYSNKPLPELAKMAADTFGRVPNKESKKPEITVPVVTDAQKGIIIHYVPALPRKVLRVEFRIDNNSAKFRSKTDELITYLIGNRSPGTLSDWLQKQGLVEGISANSDPIVNGNSGVLAISASLTDKGLANRDQVVAAIFSYLNLLREKGIDKQYFDELANVLDIDFRYPSITRDMDYVEWLADTMIRVPVEHTLDAVNIADRYDAKAVKERLAMMTPQNARIWYISPKEPHNKTAYFVDAPYQVDKISAQTFADWQKKAADIALSLPELNPYIPDDFSLIKSEKKYDHPELIVDESNLRVVYAPSRYFASEPKADVSLILRNPKAMDSARNQVMFALNDYLAGLALDQLSNQASVGGISFSTNANNGLMVNANGYTQRLPQLFQALLEGYFSYTATEDQLEQAKSWYNQMMDSAEKGKAFEQAIMPAQMLSQVPYFSRDERRKILPSITLKEVLAYRDALKSGARPEFMVIGNMTEAQATTLARDVQKQLGADGSEWCRNKDVVVDKKQSVIFEKAGNSTDSALAAVFVPTGYDEYTSSAYSSLLGQIVQPWFYNQLRTEEQLGYAVFAFPMSVGRQWGMGFLLQSNDKQPSFLWERYKAFFPTAEAKLRAMKPDEFAQIQQAVITQMLQAPQTLGEEASKLSKDFDRGNMRFDSRDKIVAQIKLLTPQKLADFFHQAVVEPQGMAILSQISGSQNGKAEYVHPEGWKVWENVSALQQTMPLMSEKNE”: the “soluble on expression in E. coli” value is listed as “soluble”.

As to “DWDSREKEAQRVAQRVTARTVSEIEYYHRESTQIAQALVENQARIEGIYKYFSLSMPDYFYWQLERKASPYISVSLYENVDDLYVRNDFVTGVAIAFQDYKEVYVSTKDKRSGEKIRAEDFKPAGNSFAIPVSDPVSDQDLGVIYISLDPAVLYHAIDNTRGHTPMAVTVTSPFDTEIFHMGETVDKESENWLVGLTSHGYQVQVAVPKN”, the “soluble on expression in E. coli” value was “not soluble”.

With “MGSDKIHHHHHHMERKTDSIDLAPLFHPDTIRLSRLAERLDDGPYHGGRIDPLALVITQREEATGQAGIDRYPMLQLAVGRAGMQVGQVDLGQLHPPVRSYLECRFHILKIVNLRHISIISRRNNSPEITLSHPKRQSPHALPYLCINIKKQHIMIRYKKYQNKNEKNVTTFNKWYARAVCEETVDIAALAEHMSTHNTPFSTGAIHGMLKDMVNCIKELLMDGKNVKIDDLGIFSVGIRSKGAVTPEDFSTQGNIIGVRLRARATGNLSSASLKLTAKLREYTEYSNGEVTPGGGGGDSESPDEI”, the “soluble on expression in E. coli” value is “not soluble”.

On to “MAHHHHHHMDSIVLPGEALGSCDAYVSGENTYSLQKEVRSAILGRRQLTTNGDGKQVISVANTKEFIPLPQVGDLVTCKVYRVTFNLIYCNIILLNSKAVRNSFRAFINKSDIHVYEGELGDNFECFKQGDIIRAKVLSVAQHGSYKLSTVGSDLGVILALSDGGERKRGKKQKKTKKQKKKKKKKEP”, for which the “soluble on expression in E. coli” value was “not soluble”.

Regarding “MDLSPLDVRYQEFPRAFRGYHRGAVREYLARVAEAMEALIRENEVLKERLRALEEENARLKEAEGELKRAVVAAERIARELKAQAEREAELLRKEAQAAKERLLQEAAQELKRLRAEIERARQEKALFLGQVRALFEGYLEALKRLEKTP”, the “soluble on expression in E. coli” value is reported as “soluble”.
